From patent US20190100587A1 (COVAGEN, published 2019)
Where a chain is given by its changes, count along the chain named. Numbers in names are those of the source. Read-outs that look alike come from different tables or passages of the source.

T1: His-tagged human FcγRIIB (R&D, carrier-free formulation) (human, UniProt P31994 46-217, limits assumed)
T1 construct: also called CD32B
T1 sequence (looked up): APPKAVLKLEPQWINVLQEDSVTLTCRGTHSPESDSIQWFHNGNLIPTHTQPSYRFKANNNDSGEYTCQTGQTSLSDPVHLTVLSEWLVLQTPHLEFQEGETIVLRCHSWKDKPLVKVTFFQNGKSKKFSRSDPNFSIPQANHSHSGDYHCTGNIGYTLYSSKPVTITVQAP

T2: His-tagged human FcγRIIA (R&D, carrier-free formulation) (human, UniProt P12318 36-218, limits assumed)
T2 construct: also called CD32A
T2 sequence (looked up): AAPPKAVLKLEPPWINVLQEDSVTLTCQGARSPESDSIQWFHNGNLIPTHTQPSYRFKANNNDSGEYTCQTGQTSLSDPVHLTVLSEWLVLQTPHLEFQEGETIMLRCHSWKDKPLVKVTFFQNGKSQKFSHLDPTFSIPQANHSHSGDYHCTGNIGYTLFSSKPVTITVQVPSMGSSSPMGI

B1: mAb1 IgG1 (antibody)
heavy: not shown
light: QVVLTQSPAIMSAFPGEKVTMTCSASSSVSYMNWYQQKSGTSPKRWIYDSSKLASGVPARFSGSGSGTSYSLTISSMETEDAATYYCQQWSRNPPTFGGGTKLQITRTVAAPSVFIFPPSDEQLKSGTASVVCLLNNFYPREAKVQWKVDNALQSGNSQESVTEQDSKDSTYSLSSTLTLSKADYEKHKVYACEVTHQGLSSPVTKSFNRGEC
notes: Human IgG1 antibody specific to human CD3, wild-type Fc; also called unmodified IgG; unmutated mAb1 IgG1
B2: mAb1 LALA IgG1 (antibody)
heavy: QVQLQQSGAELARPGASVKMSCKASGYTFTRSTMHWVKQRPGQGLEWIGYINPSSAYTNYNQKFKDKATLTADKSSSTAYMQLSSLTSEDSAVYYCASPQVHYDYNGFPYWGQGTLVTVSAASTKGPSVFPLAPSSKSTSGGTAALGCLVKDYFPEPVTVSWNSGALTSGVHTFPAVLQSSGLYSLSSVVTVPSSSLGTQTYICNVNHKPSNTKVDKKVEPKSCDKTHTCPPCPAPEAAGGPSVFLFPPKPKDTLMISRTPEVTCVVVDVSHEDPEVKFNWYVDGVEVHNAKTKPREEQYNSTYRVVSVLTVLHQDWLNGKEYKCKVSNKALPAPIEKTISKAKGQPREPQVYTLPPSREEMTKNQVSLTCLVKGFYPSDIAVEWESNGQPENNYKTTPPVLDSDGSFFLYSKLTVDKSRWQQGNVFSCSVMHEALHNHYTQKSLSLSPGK
light: B1 light
notes: mAb1 with Fc mutations L234A, L235A (EU numbering)
B3: mAb1 DAPA IgG1 (antibody)
heavy: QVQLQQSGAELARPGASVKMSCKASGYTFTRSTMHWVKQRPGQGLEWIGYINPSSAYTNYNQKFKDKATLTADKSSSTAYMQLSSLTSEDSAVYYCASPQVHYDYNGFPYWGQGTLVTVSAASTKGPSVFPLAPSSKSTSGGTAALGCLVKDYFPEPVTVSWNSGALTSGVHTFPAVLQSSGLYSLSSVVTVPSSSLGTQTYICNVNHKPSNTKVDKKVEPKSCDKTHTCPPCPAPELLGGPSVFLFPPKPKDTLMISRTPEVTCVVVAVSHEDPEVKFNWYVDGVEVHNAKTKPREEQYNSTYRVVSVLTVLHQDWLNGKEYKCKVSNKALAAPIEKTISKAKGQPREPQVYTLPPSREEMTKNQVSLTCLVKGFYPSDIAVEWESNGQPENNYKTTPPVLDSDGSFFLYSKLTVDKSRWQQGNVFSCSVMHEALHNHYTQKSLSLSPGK
light: B1 light
B4: mAb1 DENQPS IgG1 (antibody)
heavy: QVQLQQSGAELARPGASVKMSCKASGYTFTRSTMHWVKQRPGQGLEWIGYINPSSAYTNYNQKFKDKATLTADKSSSTAYMQLSSLTSEDSAVYYCASPQVHYDYNGFPYWGQGTLVTVSAASTKGPSVFPLAPSSKSTSGGTAALGCLVKDYFPEPVTVSWNSGALTSGVHTFPAVLQSSGLYSLSSVVTVPSSSLGTQTYICNVNHKPSNTKVDKKVEPKSCDKTHTCPPCPAPELLGGPSVFLFPPKPKDTLMISRTPEVTCVVVEVSHEDPEVKFNWYVDGVEVHNAKTKPREEQYQSTYRVVSVLTVLHQDWLNGKEYKCKVSNKALSAPIEKTISKAKGQPREPQVYTLPPSREEMTKNQVSLTCLVKGFYPSDIAVEWESNGQPENNYKTTPPVLDSDGSFFLYSKLTVDKSRWQQGNVFSCSVMHEALHNHYTQKSLSLSPGK
light: B1 light
notes: mAb1 with D265E, N297Q, P329S (EU numbering)
B5: mAb1 DNNDPG IgG1 (antibody)
heavy: B4 heavy with E269N, Q301D, S333G
light: B1 light
notes: mAb1 with D265N, N297D, P329G (EU numbering)
B6: mAb1 DANAPA IgG1 (antibody)
heavy: B4 heavy with E269A, Q301A, S333A
light: B1 light
notes: mAb1 with Fc mutations D265A, N297A, P329A (EU numbering); also called DANAPA Fc mutated mAb1
B7: mAb1 N297A IgG1 (antibody)
heavy: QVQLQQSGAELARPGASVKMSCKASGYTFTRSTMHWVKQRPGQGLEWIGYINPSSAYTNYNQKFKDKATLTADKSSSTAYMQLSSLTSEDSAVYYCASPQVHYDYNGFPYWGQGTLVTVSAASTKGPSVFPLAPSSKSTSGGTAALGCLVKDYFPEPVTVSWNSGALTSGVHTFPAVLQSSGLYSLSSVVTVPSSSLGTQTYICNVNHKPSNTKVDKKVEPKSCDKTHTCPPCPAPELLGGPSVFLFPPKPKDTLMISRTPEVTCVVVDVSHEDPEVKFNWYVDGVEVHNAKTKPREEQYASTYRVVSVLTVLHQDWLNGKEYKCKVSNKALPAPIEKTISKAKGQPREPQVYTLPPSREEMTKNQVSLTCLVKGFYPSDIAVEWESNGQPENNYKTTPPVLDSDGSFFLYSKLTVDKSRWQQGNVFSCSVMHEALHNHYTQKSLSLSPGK
light: B1 light
notes: mAb1 with Fc mutation N297A (EU numbering)
B8: mAb2 D5 C-LC DANAPA IgG1 (bispecific antibody)
heavy: EVQLVESGGGLVQPGGSLKLSCAASGFTFNTYAMNWVRQAPGKGLEWVARIRSKYNNYATYYADSVKDRFTISRDDSKNTAYLQMNSLKTEDTAVYYCVRHGNFGDSYVSWFAYWGQGTLVTVSSASTKGPSVFPLAPSSKSTSGGTAALGCLVKDYFPEPVTVSWNSGALTSGVHTFPAVLQSSGLYSLSSVVTVPSSSLGTQTYICNVNHKPSNTKVDKKVEPKSCDKTHTCPPCPAPELLGGPSVFLFPPKPKDTLMISRTPEVTCVVVAVSHEDPEVKFNWYVDGVEVHNAKTKPREEQYASTYRVVSVLTVLHQDWLNGKEYKCKVSNKALAAPIEKTISKAKGQPREPQVYTLPPSREEMTKNQVSLTCLVKGFYPSDIAVEWESNGQPENNYKTTPPVLDSDGSFFLYSKLTVDKSRWQQGNVFSCSVMHEALHNHYTQKSLSLSPGK
light: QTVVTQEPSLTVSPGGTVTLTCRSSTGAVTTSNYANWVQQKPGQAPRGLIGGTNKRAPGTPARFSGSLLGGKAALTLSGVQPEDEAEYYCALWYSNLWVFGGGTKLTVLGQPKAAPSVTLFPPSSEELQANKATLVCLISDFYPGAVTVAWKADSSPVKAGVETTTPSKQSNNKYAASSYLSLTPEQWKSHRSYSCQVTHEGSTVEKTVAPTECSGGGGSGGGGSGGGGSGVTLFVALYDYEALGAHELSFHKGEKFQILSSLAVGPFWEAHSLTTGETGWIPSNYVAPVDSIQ
notes: also called CD3/CD33 bispecific FynomAb with Fynomer D5; FynomAb with the DANAPA IgG Fc

Columns and labels:
[1] = biological target: T3, human recombinant FcγRI (Sino Biological) (human, UniProt P12314 16-288, limits assumed); experiment: SPR (BIAcore), FcγRI on chip, kinetic (koff/kon)
T3 construct: Amine-coupled to a BIAcore CM5 chip (1500 RU); also called CD64

[2] = biological target: T4, human recombinant FcγRIIIA (158F; R&D Systems) (human, UniProt P08637 17-208); experiment: SPR (BIAcore), FcγRIIIA 158F on chip, kinetic (koff/kon)
T4 construct: Amine-coupled to a BIAcore CM5 chip (1400 RU); also called CD16A

[3] = biological target: T3, human recombinant FcγRI (Sino …); experiment: SPR (BIAcore), FcγRI on chip, 1:1 Langmuir model
[4] = biological target: T5, His-tagged human FcγRIIIA (R&D, carrier-free formulation) (human, UniProt P08637 17-208); experiment: AlphaScreen competition assay; titrated antibody competes with biotinylated B21M IgG1 for His-tagged human FcγRIIIA
T5 construct: also called CD16A

[5] = biological target: T4, human recombinant FcγRIIIA (158F; R&D …); experiment: SPR (BIAcore), FcγRIIIA 158F on chip, steady-state model
[6] = biological target: T1, His-tagged human FcγRIIB (R&D, …); experiment: AlphaScreen competition assay; titrated antibody competes with biotinylated B21M IgG1 for His-tagged human FcγRIIB
[7] = biological target: T6, human CD3 on CD3+ Jurkat cells (human); experiment: flow cytometry on CD3+ Jurkat cells, bound antibody detected with anti-human IgG-Alexa488
T6 construct: whole, on cells

[8] = biological target: T3, human recombinant FcγRI (Sino …); experiment: SPR (BIAcore), FcγRI on chip, steady-state model
[9] = biological target: T4, human recombinant FcγRIIIA (158F; R&D …); experiment: SPR (BIAcore), FcγRIIIA 158F on chip, 1:1 Langmuir model
[10] = biological target: T2, His-tagged human FcγRIIA (R&D, …); experiment: AlphaScreen competition assay; titrated antibody competes with biotinylated B21M IgG1 for His-tagged human FcγRIIA
[11] = biological target: T5, His-tagged human FcγRIIIA (R&D, …); experiment: AlphaScreen competition assay; titrated antibody competes with biotinylated B21M IgG1 for His-tagged human FcγRIIIA; remark: listed apart in the source
[12] = biological target: T2, His-tagged human FcγRIIA (R&D, …); experiment: AlphaScreen competition assay; titrated antibody competes with biotinylated B21M IgG1 for His-tagged human FcγRIIA; remark: listed apart in the source
[13] = biological target: T7, Human C1q (EMD Millipore) (human, UniProt P02745 23-245; P02746 28-253; P02747 29-245); experiment: SPR (BIAcore T100), antibody on CM5 chip, C1q injected, steady-state model
[14] = biological target: T8, His-tagged human FcγRI (R&D, carrier-free formulation) (human, UniProt P12314 16-288); experiment: AlphaScreen competition on His-tagged FcγRI; competitor biotinylated B21M LALA IgG1
T8 construct: also called CD64; human FcγR1

[15] = biological target: T9, human recombinant FcRn (Sino Biological) (human, UniProt P55899 24-297; P61769 21-119); experiment: SPR (BIAcore), FcRn on chip, pH 6.0, steady-state model
T9 construct: Amine-coupled to a CM5 chip (600 RU); also called neonatal Fc receptor

[16] = biological target: T8, His-tagged human FcγRI (R&D, …); experiment: AlphaScreen competition on His-tagged FcγRI
[17] = biological target: T4, human recombinant FcγRIIIA (158F; R&D …); experiment: SPR (BIAcore), human FcγRIIIA (158F) amine-coupled on a CM5 chip, antibody injected
[18] = biological target: T8, His-tagged human FcγRI (R&D, …); experiment: AlphaScreen competition assay; titrated antibody competes with biotinylated B21M LALA IgG1 for His-tagged human FcγRI
[19] = biological target: T7, Human C1q (EMD Millipore); experiment: SPR (BIAcore T100), antibody amine-coupled on a CM5 chip, human C1q injected
[20] = biological target: T8, His-tagged human FcγRI (R&D, …); experiment: AlphaScreen competition assay; titrated antibody competes with biotinylated B21M LALA IgG1 for His-tagged human FcγRI; remark: listed apart in the source
[21] = biological target: T8, His-tagged human FcγRI (R&D, …); experiment: AlphaScreen competition on His-tagged FcγRI; competitor biotinylated B21M LALA IgG1; remark: listed apart in the source

T4 sequence (P08637 17-208 limits assumed): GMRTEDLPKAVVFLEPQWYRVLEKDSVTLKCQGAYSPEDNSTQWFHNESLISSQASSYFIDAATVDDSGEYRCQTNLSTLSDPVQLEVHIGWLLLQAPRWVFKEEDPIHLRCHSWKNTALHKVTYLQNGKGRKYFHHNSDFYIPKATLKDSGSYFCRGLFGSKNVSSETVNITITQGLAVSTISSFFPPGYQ
T3 sequence (P12314 16-288 limits assumed): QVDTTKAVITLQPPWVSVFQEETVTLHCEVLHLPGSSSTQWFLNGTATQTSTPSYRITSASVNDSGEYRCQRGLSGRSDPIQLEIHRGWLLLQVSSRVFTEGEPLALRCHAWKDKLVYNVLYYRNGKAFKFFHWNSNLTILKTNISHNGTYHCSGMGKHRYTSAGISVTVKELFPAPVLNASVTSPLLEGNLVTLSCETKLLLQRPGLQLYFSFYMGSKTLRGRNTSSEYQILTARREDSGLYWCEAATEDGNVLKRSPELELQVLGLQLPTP
T8 sequence (P12314 16-288 limits assumed): as above
T6 sequence (P07766 23-207, chain 1 of 4): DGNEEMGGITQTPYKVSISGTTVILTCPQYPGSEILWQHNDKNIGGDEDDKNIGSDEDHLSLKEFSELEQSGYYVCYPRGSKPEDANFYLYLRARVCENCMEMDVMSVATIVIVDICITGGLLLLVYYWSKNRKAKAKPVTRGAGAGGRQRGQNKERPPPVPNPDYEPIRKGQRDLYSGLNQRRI
T6 sequence (P09693 23-182, chain 2 of 4, further chain): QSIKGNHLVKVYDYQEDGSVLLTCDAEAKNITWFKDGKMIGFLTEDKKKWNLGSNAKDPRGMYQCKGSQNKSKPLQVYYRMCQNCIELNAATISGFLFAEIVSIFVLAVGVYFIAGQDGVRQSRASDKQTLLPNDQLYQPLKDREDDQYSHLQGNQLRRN
T6 sequence (P04234 22-171, chain 3 of 4, further chain): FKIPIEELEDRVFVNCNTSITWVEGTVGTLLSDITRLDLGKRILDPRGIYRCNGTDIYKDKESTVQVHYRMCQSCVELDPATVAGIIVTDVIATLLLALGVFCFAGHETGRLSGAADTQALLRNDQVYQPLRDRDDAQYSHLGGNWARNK
T6 sequence (P20963 22-164, chain 4 of 4, further chain): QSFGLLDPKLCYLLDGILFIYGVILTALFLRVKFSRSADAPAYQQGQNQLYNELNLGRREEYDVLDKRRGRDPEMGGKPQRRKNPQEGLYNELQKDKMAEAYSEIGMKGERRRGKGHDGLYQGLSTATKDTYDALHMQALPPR
T9 sequence (P55899 24-297 limits assumed, chain 1 of 2): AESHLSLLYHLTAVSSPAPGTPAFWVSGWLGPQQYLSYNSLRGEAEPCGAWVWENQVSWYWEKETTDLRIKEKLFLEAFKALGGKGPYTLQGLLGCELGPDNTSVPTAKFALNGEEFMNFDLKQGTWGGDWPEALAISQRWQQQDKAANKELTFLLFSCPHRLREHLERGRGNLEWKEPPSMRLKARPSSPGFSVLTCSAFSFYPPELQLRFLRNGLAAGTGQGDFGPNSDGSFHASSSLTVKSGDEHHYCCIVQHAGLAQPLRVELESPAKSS
T9 sequence (P61769 21-119 limits assumed, chain 2 of 2): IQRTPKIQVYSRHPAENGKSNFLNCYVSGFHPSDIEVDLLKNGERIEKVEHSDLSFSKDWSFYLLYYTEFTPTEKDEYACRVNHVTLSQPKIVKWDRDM
T5 sequence (P08637 17-208 limits assumed): as the sequence (P08637 17-208 limits assumed) above
T7 sequence (P02745 23-245 limits assumed, chain 1 of 3): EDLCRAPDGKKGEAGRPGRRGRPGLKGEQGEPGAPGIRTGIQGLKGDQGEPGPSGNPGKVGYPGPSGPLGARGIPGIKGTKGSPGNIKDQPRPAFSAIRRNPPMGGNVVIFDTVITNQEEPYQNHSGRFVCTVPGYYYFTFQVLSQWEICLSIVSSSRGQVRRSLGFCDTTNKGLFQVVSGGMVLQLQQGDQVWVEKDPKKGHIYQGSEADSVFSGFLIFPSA
T7 sequence (P02746 28-253 limits assumed, chain 2 of 3): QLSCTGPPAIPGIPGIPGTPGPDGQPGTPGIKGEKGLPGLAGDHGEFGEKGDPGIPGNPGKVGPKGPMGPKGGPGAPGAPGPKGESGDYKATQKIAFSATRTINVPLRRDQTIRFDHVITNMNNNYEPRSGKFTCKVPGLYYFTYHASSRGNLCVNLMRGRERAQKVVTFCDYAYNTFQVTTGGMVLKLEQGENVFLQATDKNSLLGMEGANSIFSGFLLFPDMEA
T7 sequence (P02747 29-245 limits assumed, chain 3 of 3): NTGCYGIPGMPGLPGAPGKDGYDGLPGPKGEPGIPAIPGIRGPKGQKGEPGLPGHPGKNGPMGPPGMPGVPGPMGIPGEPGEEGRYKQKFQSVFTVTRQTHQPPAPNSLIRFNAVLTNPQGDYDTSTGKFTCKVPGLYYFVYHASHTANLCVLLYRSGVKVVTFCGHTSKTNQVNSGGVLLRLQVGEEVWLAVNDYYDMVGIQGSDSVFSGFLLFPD

Binder	Kd [1]	koff [3]	kon [3]	EC50 (read off the curve) [7]	Kd [8]	IC50 [14]	IC50 relative to IgG1 [14]	fold stronger binding than mAb1 DANAPA IgG1 [16]	binding result [17]	other results
B1	112 nM	0.00729 s⁻¹	64900 M⁻¹ s⁻¹	~0.1 nM	243 nM	2.27 nM	1 fold			Kd [2]: 674 nM; IC50 (read off the curve) [4]: ~40 nM; Kd [5]: 956 nM; IC50 (read off the curve) [6]: ~200 nM; koff [9]: 0.0214 s⁻¹; kon [9]: 31800 M⁻¹ s⁻¹; IC50 (read off the curve) [10]: ~200 nM; IC50 (read off the curve) [11]: ~40 nM; IC50 (read off the curve) [12]: ~200 nM; Kd [13]: 30 nM; Kd [15]: 470 nM
B2				~0.1 nM	1550 nM	27.1 nM	11.9 fold	> 37 fold		Kd [2]: 7780 nM; Kd [5]: 13800 nM; binding result [6]: binds; koff [9]: 0.111 s⁻¹; kon [9]: 14200 M⁻¹ s⁻¹
B3	575 nM	0.0595 s⁻¹	103000 M⁻¹ s⁻¹	~0.1 nM	1190 nM	17.7 nM	7.8 fold	> 37 fold	no binding (tested: 2000 nM)	
B4										binding result [18]: binds
B5										binding result [18]: binds
B6				~0.08 nM		> 1000 nM	> 400 fold		no binding (tested: 2000 nM)	binding result [19]: no binding (tested: 200 nM C1q); Kd [15]: 500 nM
B7	737 nM	0.112 s⁻¹	152000 M⁻¹ s⁻¹	~0.1 nM	1510 nM	23.9 nM	10.5 fold	> 37 fold	no binding (tested: 2000 nM)	
B8										IC50 (read off the curve) [20]: ~200 nM; IC50 [21]: 800 nM
